6 substances from IntAct's records for PubMed 14978263 can be followed below.

In this experiment the target is csk21_arath CKA1 (UniProt Q08467).
csk21_arath CKA1, sequence (Q08467 whole entry): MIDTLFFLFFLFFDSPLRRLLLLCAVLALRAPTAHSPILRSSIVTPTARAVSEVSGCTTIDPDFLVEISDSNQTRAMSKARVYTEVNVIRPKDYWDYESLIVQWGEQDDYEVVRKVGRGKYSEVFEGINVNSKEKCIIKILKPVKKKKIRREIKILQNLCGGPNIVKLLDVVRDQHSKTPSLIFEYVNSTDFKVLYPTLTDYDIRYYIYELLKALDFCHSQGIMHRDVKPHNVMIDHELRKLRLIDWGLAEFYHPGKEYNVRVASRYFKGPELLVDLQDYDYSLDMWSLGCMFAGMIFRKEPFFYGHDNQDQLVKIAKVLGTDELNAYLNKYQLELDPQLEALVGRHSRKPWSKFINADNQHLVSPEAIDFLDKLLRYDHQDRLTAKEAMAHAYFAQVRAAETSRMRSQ

Protein CCA1 (Arabidopsis thaliana (Mouse-ear cress)), P92973 S6A, sequence (P92973 whole entry S6A): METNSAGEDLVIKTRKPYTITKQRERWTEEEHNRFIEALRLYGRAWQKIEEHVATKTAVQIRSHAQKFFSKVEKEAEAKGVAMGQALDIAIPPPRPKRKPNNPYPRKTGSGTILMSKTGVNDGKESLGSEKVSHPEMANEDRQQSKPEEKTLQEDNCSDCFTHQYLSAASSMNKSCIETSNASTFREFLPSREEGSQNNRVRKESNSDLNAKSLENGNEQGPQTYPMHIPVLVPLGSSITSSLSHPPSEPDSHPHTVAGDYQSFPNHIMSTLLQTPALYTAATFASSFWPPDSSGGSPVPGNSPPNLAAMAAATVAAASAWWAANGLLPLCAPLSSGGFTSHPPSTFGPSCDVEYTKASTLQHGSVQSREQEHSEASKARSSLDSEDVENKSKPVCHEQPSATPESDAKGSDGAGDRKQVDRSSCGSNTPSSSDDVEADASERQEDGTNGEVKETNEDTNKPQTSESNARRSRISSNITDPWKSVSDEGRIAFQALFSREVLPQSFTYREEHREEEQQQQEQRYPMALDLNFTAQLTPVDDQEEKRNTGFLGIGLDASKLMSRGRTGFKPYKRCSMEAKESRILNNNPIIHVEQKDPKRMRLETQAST
Protein CCA1 (Arabidopsis thaliana (Mouse-ear cress)), P92973 S5A, sequence (P92973 whole entry S5A): as the sequence (P92973 whole entry S6A) above, with S5A, A6S counted along it

Take “Protein CCA1 (Arabidopsis thaliana (Mouse-ear cress)), P92973 S433A”: the “effect of a mutation on the interaction” value is “decreasing interaction”.

Take “Protein CCA1 (Arabidopsis thaliana (Mouse-ear cress)), P92973 S484A”: the “effect of a mutation on the interaction” value is on record as “decreasing interaction”.

Take “Protein CCA1 (Arabidopsis thaliana (Mouse-ear cress)), P92973 S431A”: the “effect of a mutation on the interaction” value is “decreasing interaction”.

On to “Protein CCA1 (Arabidopsis thaliana (Mouse-ear cress)), P92973 S5A”, for which the “effect of a mutation on the interaction” value is “decreasing interaction”.

On to “Protein CCA1 (Arabidopsis thaliana (Mouse-ear cress)), P92973 S6A”, for which the “effect of a mutation on the interaction” value was “decreasing interaction”.

Take “Protein CCA1 (Arabidopsis thaliana (Mouse-ear cress)), P92973 S432A”: the “effect of a mutation on the interaction” value was “decreasing interaction”.
